Laboratory results: PMC6220203 (2018)

Molecular target: Biotinylated aMD5 (C-terminal biotinylated macrocycle) (macrocyclized; biotin (NHS-biotin) on the added C-terminal Lys)
Assay: SPR

koff: 0.00041 s⁻¹
B1: MET receptor extracellular domain SEMA–IPT4 (residues 1–931)-Fc (Fc fusion)
chain: ECKEALAKSEMNVNMKYQLPNFTAETPIQNVILHEHHIFLGATNYIYVLNEEDLQKVAEYKTGPVLEHPDCFPCQDCSSKANLSGGVWKDNINMALVVDTYYDDQLISCGSVNRGTCQRHVFPHNHTADIQSEVHCIFSPQIEEPSQCPDCVVSALGAKVLSSVKDRFINFFVGNTINSSYFPDHPLHSISVRRLKETKDGFMFLTDQSYIDVLPEFRDSYPIKYVHAFESNNFIYFLTVQRETLDAQTFHTRIIRFCSINSGLHSYMEMPLECILTEKRKKRSTKKEVFNILQAAYVSKPGAQLARQIGASLNDDILFGVFAQSKPDSAEPMDRSAMCAFPIKYVNDFFNKIVNKNNVRCLQHFYGPNHEHCFNRTLLRNSSGCEARRDEYRTEFTTALQRVDLFMGQFSEVLLTSISTFIKGDLTIANLGTSEGRFMQVVVSRSGPSTPHVNFLLDSHPVSPEVIVEHTLNQNGYTLVITGKKITKIPLNGLGCRHFQSCSQCLSAPPFVQCGWCHDKCVRSEECLSGTWTQQICLPAIYKVFPNSAPLEGGTRLTICGWDFGFRRNNKFDLKKTRVLLGNESCTLTLSESTMNTLKCTVGPAMNKHFNMSIIISNGHGTTQYSTFSYVDPVITSISPKYGPMAGGTLLTLTGNYLNSGNSRHISIGGKTCTLKSVSNSILECYTPAQTISTEFAVKLKIDLANRETSIFSYREDPIVYEIHPTKSFISGGSTITGVGKNLNSVSVPRMVINVHEAGRNFTVACQHRSNSEIICCTTPSLQQLNLQLPLKTKAFFMLDGILSKYFDLIYVHNPVFKPFEKPVMISMGNENVLEIKGNDIDPEAVKGEVLKVGNKSCENIHLHSEAVLCTVPNDLLKLNSELNIEWKQAISSTVLGKVIVQPDQNF
